How the values were obtained:
GP1 = GP1 (Ebola virus (EBOV), UniProt Q05320 33-501); test: ELISA on coated truncated GP
sGP = sGP (Ebola virus (EBOV), UniProt Q05320 33-295); test: ELISA on coated truncated GP
GP 95-295 = GP 95-295 (Ebola virus (EBOV), UniProt Q05320 95-295); test: ELISA on coated truncated GP
RESTV GP = biological target: T1, RESTV GP (RESTV, UniProt Q66799 34-651); test: ELISA, coated GP 1 μg/mL, antibody titrated from 10 μg/mL
T1 sequence: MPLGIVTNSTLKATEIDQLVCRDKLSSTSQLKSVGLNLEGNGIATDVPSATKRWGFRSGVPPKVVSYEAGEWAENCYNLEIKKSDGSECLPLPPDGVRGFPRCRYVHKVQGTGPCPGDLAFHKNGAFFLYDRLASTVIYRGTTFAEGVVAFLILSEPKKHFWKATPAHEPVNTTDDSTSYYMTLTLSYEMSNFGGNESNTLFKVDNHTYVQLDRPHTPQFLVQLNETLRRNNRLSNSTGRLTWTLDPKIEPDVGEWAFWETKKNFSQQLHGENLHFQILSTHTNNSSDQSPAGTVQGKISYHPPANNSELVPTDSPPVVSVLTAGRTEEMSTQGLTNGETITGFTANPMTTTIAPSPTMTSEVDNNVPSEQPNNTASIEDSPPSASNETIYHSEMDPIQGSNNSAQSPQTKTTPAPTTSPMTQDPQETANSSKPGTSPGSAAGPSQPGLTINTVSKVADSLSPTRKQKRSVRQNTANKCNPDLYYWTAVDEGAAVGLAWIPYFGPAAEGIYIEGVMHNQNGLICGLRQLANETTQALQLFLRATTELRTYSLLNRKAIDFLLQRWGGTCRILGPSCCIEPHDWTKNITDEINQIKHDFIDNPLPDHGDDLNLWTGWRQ

SUDV GP = biological target: T2, SUDV GP (SUDV, UniProt Q7T9D9 33-650); test: as above
T2 sequence: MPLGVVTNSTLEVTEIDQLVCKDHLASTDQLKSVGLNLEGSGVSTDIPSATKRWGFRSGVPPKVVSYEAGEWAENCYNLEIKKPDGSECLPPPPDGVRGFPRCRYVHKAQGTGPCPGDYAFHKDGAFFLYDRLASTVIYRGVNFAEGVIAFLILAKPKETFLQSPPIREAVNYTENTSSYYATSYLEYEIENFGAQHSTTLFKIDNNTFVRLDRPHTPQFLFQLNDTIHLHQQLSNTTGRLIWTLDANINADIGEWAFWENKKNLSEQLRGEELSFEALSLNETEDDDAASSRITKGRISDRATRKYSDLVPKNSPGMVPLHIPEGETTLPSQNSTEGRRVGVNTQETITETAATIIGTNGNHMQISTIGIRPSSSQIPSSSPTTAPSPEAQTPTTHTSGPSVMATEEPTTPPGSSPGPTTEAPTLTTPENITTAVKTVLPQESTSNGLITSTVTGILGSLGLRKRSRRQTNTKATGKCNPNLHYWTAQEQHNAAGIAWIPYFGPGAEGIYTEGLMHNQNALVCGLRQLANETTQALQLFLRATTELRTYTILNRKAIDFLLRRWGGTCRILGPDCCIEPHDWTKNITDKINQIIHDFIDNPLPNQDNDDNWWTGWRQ

EBOV GP = biological target: T3, EBOV GP (Ebola virus (EBOV), UniProt Q05320 33-650); test: as above
T3 sequence: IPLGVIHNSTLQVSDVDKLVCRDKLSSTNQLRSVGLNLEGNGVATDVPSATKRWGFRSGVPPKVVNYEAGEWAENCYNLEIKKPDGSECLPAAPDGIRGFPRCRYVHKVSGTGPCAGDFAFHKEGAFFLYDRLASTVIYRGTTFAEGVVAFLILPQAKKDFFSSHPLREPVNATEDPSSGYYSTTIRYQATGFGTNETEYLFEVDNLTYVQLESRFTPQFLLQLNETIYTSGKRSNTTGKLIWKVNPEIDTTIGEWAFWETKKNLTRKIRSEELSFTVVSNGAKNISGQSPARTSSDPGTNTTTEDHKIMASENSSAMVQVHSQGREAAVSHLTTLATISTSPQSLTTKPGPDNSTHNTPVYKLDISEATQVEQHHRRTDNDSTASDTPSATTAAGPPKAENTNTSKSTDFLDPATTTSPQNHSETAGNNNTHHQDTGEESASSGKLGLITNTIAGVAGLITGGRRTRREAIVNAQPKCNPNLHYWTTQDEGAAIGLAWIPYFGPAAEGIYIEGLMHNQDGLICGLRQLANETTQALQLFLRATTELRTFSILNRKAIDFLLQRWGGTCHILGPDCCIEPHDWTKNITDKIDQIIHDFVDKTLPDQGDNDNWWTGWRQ

B1: 抗埃博拉病毒糖蛋白GP1亚基的单克隆抗体5E9 (antibody, V domains shown)
VH: EVQLLESGGGLVKPGGSLRLSCVASGFTFTNAWMNWVRQAPGKGLEWVGRIKSKTDSGTTDYAAPVNGRFTISRDDSKNTLYLQMNSLKTEDTAVYYCTTRYQYNGMDVWGQGTTVTVSS
VL: QPVLTQPPSVSGAPGQRVTISCTGRSSNIGAGYDVHWYQHLPGTAPKLLIYANTNRPSGVPDRFSGSKSGTSASLAITGLQPGDEADYYCQSYDSRLSDHVVFGGGTKLTVLG
Work on B1 yielded an EC50 (GP1) of 4.1 ng/mL, an EC50 (sGP) of 5 ng/mL and an EC50 (GP 95-295) of 11.8 ng/mL. It also gave an EC50 (RESTV GP) of 149 ng/mL, an EC50 (SUDV GP) greater than 1000 ng/mL and an EC50 (EBOV GP) of 6 ng/mL.

From patent CN111138530A (INST MILITARY MEDICINE ACADEMY MILITARY SCIENCES PLA, dated 2020)
